Literature values as cited in article PMC9027846.

Molecular target: Plasmin (Homo sapiens) (UniProt P00747)
Test: BLI

Chain of UniProt P00747 (P00747 581-810): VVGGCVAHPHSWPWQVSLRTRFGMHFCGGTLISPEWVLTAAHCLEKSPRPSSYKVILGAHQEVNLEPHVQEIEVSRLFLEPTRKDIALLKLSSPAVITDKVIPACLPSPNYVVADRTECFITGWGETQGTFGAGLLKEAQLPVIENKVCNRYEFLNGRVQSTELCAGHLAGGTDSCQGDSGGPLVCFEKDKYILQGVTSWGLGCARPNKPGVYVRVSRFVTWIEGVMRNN

For AaTI (from UniProt Q177W0), the Kd is given as 62.8 nM.
